What was measured:
[1] = molecular target: active human CCR5 chemokine receptor (human) (UniProt P51681); assay: cell-based or functional assay
[2] = molecular target: IL-8A interleukin receptor (UniProt P25024); assay: cell-based or functional assay

Sequence of UniProt P51681 (P51681 whole entry): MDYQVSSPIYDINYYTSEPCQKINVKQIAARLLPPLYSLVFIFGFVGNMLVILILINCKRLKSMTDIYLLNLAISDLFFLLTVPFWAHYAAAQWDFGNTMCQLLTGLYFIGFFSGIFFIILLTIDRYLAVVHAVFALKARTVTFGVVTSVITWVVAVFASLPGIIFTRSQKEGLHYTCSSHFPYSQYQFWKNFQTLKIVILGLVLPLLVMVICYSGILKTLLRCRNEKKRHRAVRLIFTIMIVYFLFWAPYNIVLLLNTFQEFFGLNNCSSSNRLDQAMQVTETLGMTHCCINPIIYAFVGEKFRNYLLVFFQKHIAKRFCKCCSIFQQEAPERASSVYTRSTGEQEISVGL

Work on “recombinant human MIP-1α (Macrophage Inflammatory Protein 1 α) (from UniProt P10147 27-92) (ligand)” yielded an EC50 of the acidification response (microphysiometer) [1] of 3 nM and an acidification rate at 30 nM, percent of baseline level (% of baseline level) [1] of 156.

For “recombinant human IL-8 (Interleukin 8) (from UniProt P10145 28-99) (ligand)”, the increase in metabolic activity (microphysiometer) [2] was 160%.

— patent US20040161739A1
